Experimental data reported in IntAct's records for PubMed 19851283.

B1: Transcription factor HFR1 (Arabidopsis thaliana (Mouse-ear cress)), Q9FE22 (parent)
chain: MSNNQAFMELGWRNDVGSLAVKDQGMMSERARSDEDRLINGLKWGYGYFDHDQTDNYLQIVPEIHKEVENAKEDLLVVVPDEHSETDDHHHIKDFSERSDHRFYLRNKHENPKKRRIQVLSSDDESEEFTREVPSVTRKGSKRRRRDEKMSNKMRKLQQLVPNCHKTDKVSVLDKTIEYMKNLQLQLQMMSTVGVNPYFLPATLGFGMHNHMLTAMASAHGLNPANHMMPSPLIPALNWPLPPFTNISFPHSSSQSLFLTTSSPASSPQSLHGLVPYFPSFLDFSSHAMRRL
partner: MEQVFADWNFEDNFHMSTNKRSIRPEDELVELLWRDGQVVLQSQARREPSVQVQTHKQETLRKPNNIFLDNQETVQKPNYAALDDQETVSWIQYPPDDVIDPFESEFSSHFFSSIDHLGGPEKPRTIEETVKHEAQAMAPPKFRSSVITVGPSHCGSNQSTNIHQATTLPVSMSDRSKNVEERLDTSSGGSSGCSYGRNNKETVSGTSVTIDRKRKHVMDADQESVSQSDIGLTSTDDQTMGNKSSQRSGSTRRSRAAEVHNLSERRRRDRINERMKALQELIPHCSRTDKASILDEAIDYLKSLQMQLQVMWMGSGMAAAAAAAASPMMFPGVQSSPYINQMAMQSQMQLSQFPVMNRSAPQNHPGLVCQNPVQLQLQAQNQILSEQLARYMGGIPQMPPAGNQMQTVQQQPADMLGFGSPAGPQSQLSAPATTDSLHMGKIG
B2: Transcription factor HFR1 (Arabidopsis thaliana (Mouse-ear cress)), Q9FE22 (parent)
chain: B1 chain
partner: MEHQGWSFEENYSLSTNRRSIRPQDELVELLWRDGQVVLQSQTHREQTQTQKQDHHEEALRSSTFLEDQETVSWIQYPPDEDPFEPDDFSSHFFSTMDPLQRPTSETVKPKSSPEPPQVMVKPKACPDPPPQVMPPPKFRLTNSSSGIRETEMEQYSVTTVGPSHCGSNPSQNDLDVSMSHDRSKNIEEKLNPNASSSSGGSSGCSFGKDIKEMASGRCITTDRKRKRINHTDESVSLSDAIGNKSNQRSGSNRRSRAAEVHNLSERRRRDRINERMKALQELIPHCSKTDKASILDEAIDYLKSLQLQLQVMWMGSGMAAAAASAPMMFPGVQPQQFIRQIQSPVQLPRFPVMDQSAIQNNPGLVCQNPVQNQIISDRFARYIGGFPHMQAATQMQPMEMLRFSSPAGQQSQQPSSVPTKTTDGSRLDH

Variants of: B1
Conditions: with pif5_arath PIF5, Q84LH8

effect of a mutation on the interaction | Variant
disrupting interaction | V172D
disrupting interaction | L173E

Variants of: B2
Conditions: with pif4_arath PIF4, Q8W2F3

effect of a mutation on the interaction | Variant
disrupting interaction | L173E
disrupting interaction | V172D
